{"source": "paper PMC7611554", "target": "SNAP-LepR:EGFR complex (UniProt P48356)", "assay": "FRET or BRET", "data": [{"substance": "EGF-d2 (ligand)", "values": [{"measurement": "Kd", "result": 2.1, "unit": "nM"}]}]}
